Measurements: article PMC4847776, “Mutagenesis of mNeptune Red-Shifts Emission Spectrum to 681-685 nm” (PLoS ONE, 2016)
Positions count from the first letter of the chain named. Each block holds one molecule with its values, some of them ahead of it.

What was measured:
Assay in all cases: SEC; Superdex 200 10/300 GL column, PBS (pH 7.4), protein approximate 3–4 mg/ml; elution volume compared with mNeptune (monomer standard) and eqFP670 (dimer standard)
mNeptune681_Q159Y = biological target: mNeptune681_Q159Y
mNeptune681_Q159F = biological target: mNeptune681_Q159F
eqFP670 = biological target: eqFP670
mNeptune681_Q159C = biological target: T1, mNeptune681_Q159C; conditions: both partners purified
T1 chain: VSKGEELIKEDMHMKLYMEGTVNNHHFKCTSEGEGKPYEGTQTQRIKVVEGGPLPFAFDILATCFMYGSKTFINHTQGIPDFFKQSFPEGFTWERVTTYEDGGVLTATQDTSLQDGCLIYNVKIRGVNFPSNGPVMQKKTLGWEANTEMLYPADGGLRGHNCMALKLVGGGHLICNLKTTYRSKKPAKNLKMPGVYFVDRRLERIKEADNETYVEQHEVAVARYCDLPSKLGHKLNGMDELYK

mNeptune681_Q159V = biological target: T2, mNeptune681_Q159V; conditions: both partners purified
T2 chain: T1 chain with C162V

mNeptune681_Q159W = biological target: T3, mNeptune681_Q159W; conditions: both partners purified
T3 chain: T1 chain with C162W

mNeptune681_Q159M = biological target: T4, mNeptune681_Q159M; conditions: both partners purified
T4 chain: T1 chain with C162M

mNeptune681_Q159I = biological target: T5, mNeptune681_Q159I; conditions: both partners purified
T5 chain: T1 chain with C162I

mNeptune681_Q159T = biological target: T6, mNeptune681_Q159T; conditions: both partners purified
T6 chain: T1 chain with C162T

mNeptune681_Q159L = biological target: T7, mNeptune681_Q159L; conditions: both partners purified
T7 chain: T1 chain with C162L

Molecule: mNeptune681_Q159F
stoichiometry N (mNeptune681_Q159F): 2

Molecule: eqFP670
stoichiometry N (eqFP670): 2

B1: mNeptune681_Q159C (other)
chain: T1 chain
modifications: autocatalytic Met-Tyr-Gly chromophore / autocatalytic Met-Tyr-Gly chromophore
stoichiometry N (mNeptune681_Q159C): 2

B5: mNeptune681_Q159I (other)
chain: T1 chain with C162I
modifications: autocatalytic Met-Tyr-Gly chromophore / autocatalytic Met-Tyr-Gly chromophore
stoichiometry N (mNeptune681_Q159I): 2

Further lines, results first:

stoichiometry N (mNeptune681_Q159Y): 2
Molecule: mNeptune681_Q159Y

stoichiometry N (mNeptune681_Q159V): 2
B2: mNeptune681_Q159V (other)
chain: T1 chain with C162V
modifications: autocatalytic Met-Tyr-Gly chromophore / autocatalytic Met-Tyr-Gly chromophore

stoichiometry N (mNeptune681_Q159W): 2
B3: mNeptune681_Q159W (other)
chain: T1 chain with C162W
modifications: autocatalytic Met-Tyr-Gly chromophore / autocatalytic Met-Tyr-Gly chromophore

stoichiometry N (mNeptune681_Q159M): 2
B4: mNeptune681_Q159M (other)
chain: T1 chain with C162M
modifications: autocatalytic Met-Tyr-Gly chromophore / autocatalytic Met-Tyr-Gly chromophore

stoichiometry N (mNeptune681_Q159T): 2
B6: mNeptune681_Q159T (other)
chain: T1 chain with C162T
modifications: autocatalytic Met-Tyr-Gly chromophore / autocatalytic Met-Tyr-Gly chromophore

stoichiometry N (mNeptune681_Q159L): 2
B7: mNeptune681_Q159L (other)
chain: T1 chain with C162L
modifications: autocatalytic Met-Tyr-Gly chromophore / autocatalytic Met-Tyr-Gly chromophore
